Reference: article PMC10783487 (Nucleic Acids Research, 2023)

Biological target: the molecule itself
Assay: crystal structure

B1: Thermoanaerobacter brockii Can2 E341A mutant (TbrCan2^E341A), catalytically inactive (enzyme)
chain: MNEKVLVLIVGTNPLPNYVVGSHLKEKYDKFVLIYSEKNDKINQNSTYDYAKKLKEHLNLNDKCIFLPLSDVSNSEKIINDLREKFPSEDFVEVHLNYTGGTKTMVVHIYNFLKEKFKNNKIKFEGSYLDARDYKLVYDYSEEAISLKDTIKIDINTLLSIHLYEDIHFEFYDTYSYKQKFVDSFDKISQEIEKAIKDDKGEDFVKWLEDPFRKIFKGENKLLEKTAKFKKHIEKLLKDNDSSPIVKFNEKTPQFIWDILNAFPEGKKLNDGQKLWIPDDKITNDNLSSRVKDTVEFLNGKWFEWYVYSQIKSELLDRKLKEGEHFGISLKAQKKDSPYFALDIFLINGYQLIGISLTTSSTRELCKLKGFEVIHRVRQIGGDESKAILITGMDKSKTEDLQKDLAYETGSTQKRFVVFGIDDWADIGSKICEEVFK
stoichiometry N: 2
